We go through one substance from patent publication US20090104178A1.

The target in assay [1] is APRIL (TNFL13). Nature of the assay: SPR. For orientation: Surface plasmon resonance follows binding to a sensor surface in real time, without labels.
Assay [2] addresses LIGHT (TNFL14). In words: SPR.

In the case of “Purified recombinant EV CrmD protein (receptor)”, the Kd is 110 µM in assay [1] and 0.14 µM in assay [2].

By Kd is commonly meant the concentration at which binding is half-saturated. Low values mean a tighter complex, high ones a looser complex.
